Test results reported in PMC7393355, “A FRET-based screening method to detect potential inhibitors of the binding of CNNM3 to PRL2” (Scientific Reports, 2020).

Legend:
PRL3 (Homo sapiens) = PRL3 (Homo sapiens) (UniProt O75365); details: cited from earlier work
[1] = target: CNNM3 CBS domain (residues 301-452) with YPet at its C-terminus (UniProt Q8NE01); assay: FRET competition (inhibition) assay; details: CNNM3-YPet 200 nM, CyPet-PRL2 200 nM, pre-incubation 20 min at R.T., control without competitor est. 98%, n = 6, read off a plot
Sequence of CNNM3 CBS domain (residues 301-452) with YPet at its C-terminus (Q8NE01 301-452): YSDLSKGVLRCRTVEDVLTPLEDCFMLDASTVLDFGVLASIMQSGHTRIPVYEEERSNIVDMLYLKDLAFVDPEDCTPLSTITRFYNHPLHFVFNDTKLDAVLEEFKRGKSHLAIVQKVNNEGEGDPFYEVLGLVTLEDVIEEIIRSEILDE

Sequence of non-fluorescence protein-tagged PRL2 (Q12974 whole entry, stated change not applied): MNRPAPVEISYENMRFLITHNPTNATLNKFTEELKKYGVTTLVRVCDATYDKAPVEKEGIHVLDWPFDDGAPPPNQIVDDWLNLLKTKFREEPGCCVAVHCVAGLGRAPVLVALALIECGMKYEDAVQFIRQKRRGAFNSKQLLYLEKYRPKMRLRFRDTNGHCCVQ
Sequence of CNNM3 (Q8NE01 whole entry): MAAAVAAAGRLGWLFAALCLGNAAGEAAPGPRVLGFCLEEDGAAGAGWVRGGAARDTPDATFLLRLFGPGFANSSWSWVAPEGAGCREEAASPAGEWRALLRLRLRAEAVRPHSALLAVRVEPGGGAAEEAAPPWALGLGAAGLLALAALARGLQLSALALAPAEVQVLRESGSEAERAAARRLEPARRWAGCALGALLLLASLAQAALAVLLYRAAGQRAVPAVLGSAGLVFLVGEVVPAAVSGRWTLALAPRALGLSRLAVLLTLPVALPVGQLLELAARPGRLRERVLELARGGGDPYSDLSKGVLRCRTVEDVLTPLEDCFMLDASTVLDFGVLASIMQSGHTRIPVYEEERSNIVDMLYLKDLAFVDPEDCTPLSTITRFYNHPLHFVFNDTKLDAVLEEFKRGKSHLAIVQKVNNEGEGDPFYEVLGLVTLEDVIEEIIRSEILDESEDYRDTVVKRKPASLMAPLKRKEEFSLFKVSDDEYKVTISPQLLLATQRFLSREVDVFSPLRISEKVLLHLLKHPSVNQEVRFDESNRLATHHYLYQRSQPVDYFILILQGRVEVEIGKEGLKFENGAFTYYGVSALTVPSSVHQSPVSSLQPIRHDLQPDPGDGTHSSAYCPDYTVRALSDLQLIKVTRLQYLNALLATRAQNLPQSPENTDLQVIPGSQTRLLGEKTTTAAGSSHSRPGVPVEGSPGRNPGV
Sequence of PRL3 (Homo sapiens) (O75365 1-170 C104E): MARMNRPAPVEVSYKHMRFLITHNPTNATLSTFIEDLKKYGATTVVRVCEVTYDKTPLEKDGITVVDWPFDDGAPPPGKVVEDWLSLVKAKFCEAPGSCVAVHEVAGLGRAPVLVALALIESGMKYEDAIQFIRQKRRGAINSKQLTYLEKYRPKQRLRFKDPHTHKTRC

response ([1]; 1 µM untagged competitor, parent: est. 15) | response ([1]; 10 µM untagged competitor, parent: est. 11) | Substance | Kd (PRL3 (Homo sapiens))
 |  | CNNM3 (from UniProt Q8NE01) | 2800 nM
97% | 76% | non-fluorescence protein-tagged PRL2 (from UniProt Q12974-1) C107E | 
